# Results from patent US20230064978A1, “CYCLIC PEPTIDE RECEPTOR LANTHIONINE SYNTHETASE C-LIKE PROTEIN (LANCL) AND USES THEREOF” (LATERAL IP PTY LTD, priority 2019, published 2023).
# Bridges are numbered along the chain shown (N, C = ends). Where no end group is shown, it is not given here.
# Molecular target: Recombinant human 6His-LaNCL1 protein (Homo sapiens, UniProt O43813)
# Assay: In-vitro photolabelling of 6His-LanCL1 and LC-MS/MS to identify binding site
# Method: Recombinant human 6His-LaNCL1 protein (2 μM, 1 nmol, 53 μg) in 530 μL PBS was pre-incubated with 50 μM of LAT8881 or DMSO for 10 min and then treated with 25 μM LAT9991-PAL for another 30 min at RT in Nunc™ MicroWell™ 96-well plates (Thermo Fisher Scientific cat #167008) (final reaction volume, 530 μL). The samples were UV-irradiated (365 nm) for 20 min at 4° C. After UV-irradiation, the samples were split in two different samples containing 3 μg or 50 μg of protein.
# Protein samples (3 μg protein) were adjusted to 1% SDS and 10 mM DTT. After incubation for 1 h at 56° C., protein samples were treated with 30 mM iodoacetamide for 45 min at RT in the dark. Dry acetone (9 volumes) prechilled to −20° C. was added and the cloudy mixture was vortexed thoroughly and incubated at −20° C. overnight. After centrifugation (15,000×g for 10 min at 4° C.), the supernatants were poured off and the remaining pellets washed with −20° C. acetone. […] After removing the supernatants, the protein pellets were air-dried and dissolved in laemmli buffer, heated at 60° C. for 20 minutes and analyzed by in gel fluorescence scanning […]
# Peptides were analyzed by nanoLC-MS/MS with the Ultimate 3000 RSLC (Thermo Fisher Scientific) coupled online to a Q-Exactive Plus mass spectrometer with a NanoFlex source. […]
# Recombinant human 6His-LaNCL1 protein, sequence (O43813 with tags, fused parts or gaps): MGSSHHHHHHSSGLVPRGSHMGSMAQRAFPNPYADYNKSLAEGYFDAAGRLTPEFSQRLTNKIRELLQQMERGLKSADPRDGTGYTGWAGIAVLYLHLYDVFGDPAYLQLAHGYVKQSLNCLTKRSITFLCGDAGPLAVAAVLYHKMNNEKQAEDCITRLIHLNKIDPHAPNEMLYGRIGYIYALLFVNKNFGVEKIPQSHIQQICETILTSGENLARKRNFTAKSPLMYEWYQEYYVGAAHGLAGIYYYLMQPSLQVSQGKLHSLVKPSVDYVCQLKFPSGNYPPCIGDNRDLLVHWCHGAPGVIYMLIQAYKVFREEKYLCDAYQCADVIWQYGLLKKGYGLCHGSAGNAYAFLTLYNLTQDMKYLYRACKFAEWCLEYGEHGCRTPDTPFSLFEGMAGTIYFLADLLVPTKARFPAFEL
substance,measurement,setting,value
LAT9991-PAL: cyclic peptide of SEQ ID NO:12 (LAT9991) conjugated to the PAL (Photo-Activated Labelling) grouping (CRSVEGSCG; disulfide 1-8 (inferred); also: PAL group on N-terminal Cys-Arg part),Modified LANCL1 peptide sequence differentially detected,"25 μM probe, dependent peptide MS analysis",IDPHAPNEM(ox)LYGR
same,Most likely site for localization of the probe adduct on LANCL1,amino acid residues 171-174 of human LANCL1 (SEQ ID NO:56),PNEM
